Columns and labels:
[1] = target: T1, human FcγRIa extracellular domain with C-terminal His-tag (human, UniProt P12314 16-292); experiment: SPR Biacore T200, captured Ab, pH 7.4
T1 construct: extracellular domain; also called hFcγR Ia; hFcγRIa

[2] = target: T2, human FcγRIIa R allotype extracellular domain with C-terminal His-tag (human, UniProt P12318 34-217); experiment: SPR Biacore T200, captured Ab, pH 7.4
T2 construct: extracellular domain; also called hFcγR IIa R
T2 sequence (looked up): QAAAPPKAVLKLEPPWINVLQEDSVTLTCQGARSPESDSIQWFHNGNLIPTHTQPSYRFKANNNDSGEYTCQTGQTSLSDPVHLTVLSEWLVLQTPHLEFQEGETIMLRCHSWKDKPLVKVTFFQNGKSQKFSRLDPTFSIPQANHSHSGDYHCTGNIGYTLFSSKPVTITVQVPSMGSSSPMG

[3] = target: T3, human FcγRIIa H allotype extracellular domain with C-terminal His-tag (human, UniProt P12318 34-217); experiment: SPR Biacore T200, captured Ab, pH 7.4
T3 construct: extracellular domain; also called hFcγR IIa H
T3 sequence (looked up): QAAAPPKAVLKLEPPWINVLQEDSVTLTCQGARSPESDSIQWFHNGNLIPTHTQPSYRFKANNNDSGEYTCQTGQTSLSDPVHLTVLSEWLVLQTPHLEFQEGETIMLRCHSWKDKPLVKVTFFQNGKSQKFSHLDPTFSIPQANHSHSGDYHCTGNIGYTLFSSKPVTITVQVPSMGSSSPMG

[4] = target: T4, human FcγRIIIa F allotype extracellular domain with C-terminal His-tag (human, UniProt P08637 17-208); experiment: SPR Biacore T200, captured Ab, pH 7.4
T4 construct: extracellular domain; also called hFcγR IIIa F

[5] = target: T5, human FcγRIIb extracellular domain with C-terminal His-tag (human, UniProt P31994 43-217); experiment: SPR; FcγRIIb bound amount per unit captured Ab
T5 construct: extracellular domain; also called hFcγR IIb
T5 sequence (looked up): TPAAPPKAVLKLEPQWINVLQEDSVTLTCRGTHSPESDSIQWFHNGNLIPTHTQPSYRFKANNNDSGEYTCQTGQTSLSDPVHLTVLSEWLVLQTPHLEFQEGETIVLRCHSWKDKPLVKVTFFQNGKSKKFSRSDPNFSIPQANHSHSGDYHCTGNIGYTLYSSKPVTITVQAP

[6] = target: T6, human FcRn (human, UniProt P55899 24-290; P61769 21-119); experiment: SPR Biacore T200, captured Ab, pH 6.0, steady state
T6 construct: Prepared by the method of WO 2010/107110; also called hFcRn

[7] = target: T7, human FcγRIIIa V allotype extracellular domain with C-terminal His-tag (human, UniProt P08637 17-208); experiment: SPR Biacore T200, captured Ab, pH 7.4, steady state model
T7 construct: extracellular domain; also called hFcγR IIIa V

[8] = target: T6, human FcRn; experiment: SPR; KD of 04H1389-G1m/04L1305-k0MT divided by KD of variant
[9] = target: T1, human FcγRIa extracellular domain with …; experiment: as above
[10] = target: T2, human FcγRIIa R allotype extracellular …; experiment: as above
[11] = target: T3, human FcγRIIa H allotype extracellular …; experiment: as above
[12] = target: T4, human FcγRIIIa F allotype extracellular …; experiment: as above
[13] = target: T7, human FcγRIIIa V allotype extracellular …; experiment: as above
[14] = target: T5, human FcγRIIb extracellular domain with …; experiment: SPR; binding amount divided by that of 04H1389-G1m/04L1305-k0MT

T1 sequence (P12314 16-292): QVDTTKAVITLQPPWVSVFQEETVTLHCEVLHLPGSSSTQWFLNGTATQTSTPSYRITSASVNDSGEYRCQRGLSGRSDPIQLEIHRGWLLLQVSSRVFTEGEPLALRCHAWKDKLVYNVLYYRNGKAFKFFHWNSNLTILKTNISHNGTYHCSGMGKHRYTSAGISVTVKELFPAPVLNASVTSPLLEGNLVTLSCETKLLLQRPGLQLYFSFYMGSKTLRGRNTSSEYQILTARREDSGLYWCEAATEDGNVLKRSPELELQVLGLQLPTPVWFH
T4 sequence (P08637 17-208): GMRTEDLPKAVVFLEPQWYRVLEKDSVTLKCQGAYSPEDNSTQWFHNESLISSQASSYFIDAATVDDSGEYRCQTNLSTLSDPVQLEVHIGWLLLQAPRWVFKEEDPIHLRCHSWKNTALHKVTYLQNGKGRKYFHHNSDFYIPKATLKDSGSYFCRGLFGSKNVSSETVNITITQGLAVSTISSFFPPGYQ
T7 sequence (P08637 17-208 F176V): as the sequence (P08637 17-208) above, with F160V counted along it
T6 sequence (P55899 24-290 limits assumed, chain 1 of 2): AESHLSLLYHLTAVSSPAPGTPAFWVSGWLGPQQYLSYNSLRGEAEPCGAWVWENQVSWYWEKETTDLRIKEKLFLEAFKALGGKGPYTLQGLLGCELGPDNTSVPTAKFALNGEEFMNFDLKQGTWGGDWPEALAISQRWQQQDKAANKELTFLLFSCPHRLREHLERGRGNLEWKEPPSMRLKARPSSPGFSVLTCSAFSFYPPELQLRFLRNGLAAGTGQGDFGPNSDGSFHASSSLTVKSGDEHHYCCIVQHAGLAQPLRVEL
T6 sequence (P61769 21-119 limits assumed, chain 2 of 2): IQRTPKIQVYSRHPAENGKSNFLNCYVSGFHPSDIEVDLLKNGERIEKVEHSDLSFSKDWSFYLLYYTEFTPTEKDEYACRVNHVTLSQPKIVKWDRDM

B1: 04H1389-G1m/04L1305-k0MT (antibody, human IgG1, kappa)
heavy: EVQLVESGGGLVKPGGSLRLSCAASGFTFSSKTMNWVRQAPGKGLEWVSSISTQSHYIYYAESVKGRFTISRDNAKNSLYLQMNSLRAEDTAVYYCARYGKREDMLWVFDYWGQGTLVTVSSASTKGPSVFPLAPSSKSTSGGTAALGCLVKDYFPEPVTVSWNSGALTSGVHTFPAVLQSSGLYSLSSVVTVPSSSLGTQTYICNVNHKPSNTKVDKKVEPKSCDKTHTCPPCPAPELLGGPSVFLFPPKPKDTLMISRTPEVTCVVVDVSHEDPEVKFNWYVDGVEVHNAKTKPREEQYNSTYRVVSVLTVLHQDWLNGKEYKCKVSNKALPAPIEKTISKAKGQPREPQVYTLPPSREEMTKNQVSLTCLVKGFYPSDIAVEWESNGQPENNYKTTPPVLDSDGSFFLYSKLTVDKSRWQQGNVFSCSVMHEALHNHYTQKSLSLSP
light: DIVMTQSPLSLPVTPGEPASISCDGPSTGVGDYNYVHWYQQKPGQAPRLLIYFTSKKPSGVPDRFSGSGSGTDFTLKISRVEAEDVGVYYCQTYAAPLGPMFGQGTKLEIKRTVAAPSVFIFPPSDEQLKSGTASVVCLLNNFYPREAKVQWKVDNALQSGNSQESVTEQDSKDSTYSLSSTLTLSKADYEKHKVYACEVTHQGLSSPVTKSFNRGEC
[1]
  Kd: 0.069 nM
[2]
  Kd: 1600 nM
[3]
  Kd: 1100 nM
[4]
  Kd: 690 nM
[5]
  Binding amount: 0.011
[6]
  Kd: 1000 nM
[7]
  Kd: 880 nM
[8]
  Relative value to KD between G1m and hFcRn: 1
[9]
  Relative value to KD between G1m and hFcγRs: 1
[10]
  Relative value to KD between G1m and hFcγRs: 1
[11]
  Relative value to KD between G1m and hFcγRs: 1
[12]
  Relative value to KD between G1m and hFcγRs: 1
[13]
  Relative value to KD between G1m and hFcγRs: 1
[14]
  Relative binding amount: 1

Source: US20260022175A1 (Chugai, published 2026)
